# Assay results as given in paper PMC9606859, “Chemical Synthesis of Trans 8-Methyl-6-Nonenoyl-CoA and Functional Expression Unravel Capsaicin Synthase Activity Encoded by the Pun1 Locus” (Molecules, 2022).
# B1: recombinant capsaicin synthase (AT3, Pun1) (Capsicum chinense) (protein)
# chain: MAFALPSSLVSVCDKSFIKPSSLTPSTLRFHKLSFIDQSLSNMYIPCAFFYPKVQQRLEDSKNSDELSHIAHLLQTSLSQTLVSYYPYAGKLKDNATVDCNDMGAEFLSVRIKCSMSEILDHPHASLAESIVLPKDLPWANNCEGGNLLVVQVSKFDCGGIAISVCFSHKIGDGCSLLNFLNDWSSVTRDHTTTTLVPSPRFVGDSVFSTKTYGSLTTPQILSDLNECVQKRLIFPTDKLDALRAKVAEESGVKNPTRAEVVSALLFKCATKASSSMLPSKLVHFLNIRTMIKPRLPRNTIGNLSSIFSIEATNMQDMELPTLVRNLRKEVEVAYKKDQVEQNELILEVVESMREGKLPFENMDGYENVYTCSNLCKYPYYTVDFGWGRPERVCLGNGPSKNAFFLKDYKAGQGVEARVMLHKQQMSEFERNEELLEFIA
# notes: full length, codon-optimized 1332 bp NdeI/XhoI fragment in pET-16b, His-tag (2 kDa) kept; E. coli SoluBL21; partly purified (Ni-NTA, SEC); monomer
# Substrate: CC(C)/C=C/CCCCC(=O)SCCNC(=O)CCNC(=O)[C@H](O)C(C)(C)COP(=O)(O)OP(=O)(O)OC[C@H]1O[C@@H](n2cnc3c(N)ncnc32)[C@H](O)[C@@H]1OP(=O)(O)O
# Experiment: HPLC/MS capsaicin formation
# Assay type: biochemical, Capsicum chinense
# Conditions: co-substrate vanilloylamine (saturating per Figure S3), 50 mM TRIS/HCl pH 7.5, 150 mM NaCl, 10% glycerol, 1 mM TCEP, partly purified enzyme, single measurement, three technical replicates
protein,measurement,value
B1,Km,480 ± 240 µM
